Patent US20050089880

Key:
[1] = molecular target: T1, N-terminus of rat macro-H2A peptide
T1 chain: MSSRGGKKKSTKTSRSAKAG

[2] = molecular target: T2, N-terminus of human CENP-A peptide
T2 chain: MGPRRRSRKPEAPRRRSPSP

[3] = molecular target: T3, mutated H3 (K9L) N-terminal peptide
T3 chain: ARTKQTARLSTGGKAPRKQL

[4] = molecular target: wild-type N-terminus of human histone H3 peptide (aa 1-20)

B1: murine GST-Suv39h1(aa 82-412) (protein)
chain: CIRVLKQFHKDLERELVRRHRRSKPPRHLDPNLANYLVQKAKQRRALQRWEQELNAKRSHLGRITVENEVDLDGPPRSFVYINEYRVGEGITLNQVAVGCECQDCLLAPTGGCCPGASLHKFAYNDQGQVRLKAGQPIYECNSRCCCGYDCPNRVVQKGIRYDLCIFRTNDGRGWGVRTLEKIRKNSFVMEYVGEIITSEEAERRGQIYDRQGATYLFDLDYVEDVYTVDAAYYGNISHFVNHSCDPNLQVYNVFIDNLDERLPRIAFFATRTIWAGEELTFDYNMQVDPVDMESTRMDSNFGLAGLPGSPKKRVRIECKCGTTACRKYLF
Histone H4
  in vitro methylation of individual histones (fluorography): no signals are detected with H2A, H2B or H4
[1]
  in vitro methylation of N-terminal peptides (SDS-PAGE, fluorography): no signals were detected with the CENP-A or macroH2A peptides, or with insulin
[2]
  in vitro methylation of N-terminal peptides (SDS-PAGE, fluorography): no signals were detected with the CENP-A or macroH2A peptides, or with insulin
Histone H2A
  in vitro methylation of individual histones (fluorography): no signals are detected with H2A, H2B or H4
[3]
  in vitro methylation of N-terminal peptides (SDS-PAGE, fluorography): the mutated H3 (K9L) peptide was not a substrate
[4]
  3H-incorporation of individual amino acids (microsequencing of the in vitro methylated peptide, scintillation counting): The results confirmed selective transfer of methyl-label to lysine 9
  in vitro methylation of N-terminal peptides (SDS-PAGE, fluorography): selective methylation of the wild-type H3 peptide
Histone H3
  in vitro HMTase activity (free histones, fluorography): maintained HMTase activity (although at a reduced level as compared to transfected SUV39H1)
  in vitro methylation of individual histones (fluorography): H3 is specifically methylated by GST-Suv39h1(aa 82-412)
Histone H2B
  in vitro methylation of individual histones (fluorography): no signals are detected with H2A, H2B or H4
Histone H1
  in vitro methylation of individual histones (fluorography): A weak signal is present if H1 was used as the sole substrate
insulin
  in vitro methylation of N-terminal peptides (SDS-PAGE, fluorography): no signals were detected with the CENP-A or macroH2A peptides, or with insulin

B2: triple myc-tagged full-length human SUV39H1 (aa 3-412) (protein)
chain: ENLKGCSVCCKSSWNQLQDLCRLAKLSCPALGISKRNLYDFEVEYLCDYKKIREQEYYLVKWRGYPDSESTWEPRQNLKCVRILKQFHKDLERELLRRHHRSKTPRHLDPSLANYLVQKAKQRRALRRWEQELNAKRSHLGRITVENEVDLDGPPRAFVYINEYRVGEGITLNQVAVGCECQDCLWAPTGGCCPGASLHKFAYNDQGQVRLRAGLPIYECNSRCRCGYDCPNRVVQKGIRYDLCIFRTDDGRGWGVRTLEKIRKNSFVMEYVGEIITSEEAERRGQIYDRQGATYLFDLDYVEDVYTVDAAYYGNISHFVNHSCDPNLQVYNVFIDNLDERLPRIAFFATRTIRAGEELTFDYNMQVDPVDMESTRMDSNFGLAGLPGSPKKRVRIECKCGTESCRKYLF
Histone H3
  in vitro HMTase activity (transfer of 14C-methyl label to free histones, fluorography): indicating selective transfer of the methyl-label to H3

B3: triple myc-tagged C-terminally truncated SUV39H1 protein (aa 3-118) (protein)
chain: ENLKGCSVCCKSSWNQLQDLCRLAKLSCPALGISKRNLYDFEVEYLCDYKKIREQEYYLVKWRGYPDSESTWEPRQNLKCVRILKQFHKDLERELLRRHHRSKTPRHLDPSLANYL
Histone H3
  in vitro HMTase activity (transfer of 14C-methyl label to free histones, fluorography): no signals were detected with extracts from a HeLa cell line that expresses only the N-terminal third of SUV39H1 (aa 3-118)

B4: murine GST-Suv39h1 product comprising aa 7-221 (protein)
chain: GCSVCCKSSWNQLQDLCRLAKLSCPALGVSKKNLYDFEVEYLCDYKKIREQEYYLVKWRGYPDSENTWEPRQNLKCIRVLKQFHKDLERELVRRHRRSKPPRHLDPNLANYLVQKAKQRRALQRWEQELNAKRSHLGRITVENEVDLDGPPRSFVYINEYRVGEGITLNQVAVGCECQDCLLAPTGGCCPGASLHKFAYNDQGQVRLKAGQPIYE
Histone H3
  in vitro HMTase activity (free histones, fluorography): proved negative, even at higher protein concentrations
